Literature values in patent publication US6528620B1, “Sid-polyamide fusions: a potent method of regulating gene expression” (University of Utah Research Foundation, priority 1999, dated 2003).

How the values were obtained:
Conditions in all cases: Ayer et al., Cell 80:767-776 (1995); cited from earlier work
PAH1 domain of mSin3A = target: T1, PAH1 domain of mSin3A (Mus musculus, UniProt Q60520)
T1 sequence (Q60520 119-189 limits assumed): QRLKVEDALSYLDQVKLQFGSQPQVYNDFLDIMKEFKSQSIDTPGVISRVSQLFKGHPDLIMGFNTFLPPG

PAH4 domain of mSin3A = test system: PAH4 domain of mSin3A
Sequence of PAH4 domain of mSin3A (Q60520 889-968 limits assumed): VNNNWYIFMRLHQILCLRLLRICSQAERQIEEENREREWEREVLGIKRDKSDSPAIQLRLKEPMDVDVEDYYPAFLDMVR

PAH3 domain of mSin3A = target: T2, PAH3 domain of mSin3A (Mus musculus, UniProt Q60520)
T2 sequence (Q60520 457-526 limits assumed): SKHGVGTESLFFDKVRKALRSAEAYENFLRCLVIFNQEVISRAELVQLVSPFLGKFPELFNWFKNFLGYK

B1: Mad1: bHLHZip transcriptional repressor protein of the Mad family (protein)
chain: MAAAVRMNIQMLLEAADYLERREREAEHGYASMLPYNNKDRDALKRRNKSKKNNSSSRSTHNEMEKNRRAHLRLCLEKLKGLVPLGPESSRHTTLSLLTKAKLHIKKLEDCDRKAVHQIDQLQREQRHLKRQLEKLGIERIRMDSIGSTVSSERSDSDREEIDVDVESTDYLTGDLDWSSSSVSDSDERGSMQSLGSDEGYSSTSIKRIKLQDSHKACLGL
modifications: left off: small tags and cut ends
notes: bHLHZip transcriptional repressor protein of the Mad family
no interaction is detected: interaction with PAH1 (PAH1 domain of mSin3A) | interaction with PAH4 (PAH4 domain of mSin3A) | interaction with PAH3 (PAH3 domain of mSin3A)
